# Measured values reported in US20240010722A1 (published 2024).
# Changes are numbered by the printed parent chain.
# T1: human MAdCAM (human, UniProt Q13477 19-317, limits assumed)
# T1 construct: also called huMAdCAM; human MAdCAM-1
# T1 sequence (looked up): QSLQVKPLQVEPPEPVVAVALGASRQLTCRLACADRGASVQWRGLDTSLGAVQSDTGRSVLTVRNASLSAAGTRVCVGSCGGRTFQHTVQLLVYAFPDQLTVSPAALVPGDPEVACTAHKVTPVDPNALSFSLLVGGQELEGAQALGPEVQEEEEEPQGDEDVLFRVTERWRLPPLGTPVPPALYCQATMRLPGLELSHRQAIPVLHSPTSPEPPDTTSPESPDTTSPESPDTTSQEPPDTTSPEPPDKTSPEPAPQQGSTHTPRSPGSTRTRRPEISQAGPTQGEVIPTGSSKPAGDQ
# T2: mouse MAdCAM (mouse, UniProt Q61826 22-365, limits assumed)
# T2 construct: also called mouse MAdCAM-1; muMAdCAM
# T2 sequence (looked up): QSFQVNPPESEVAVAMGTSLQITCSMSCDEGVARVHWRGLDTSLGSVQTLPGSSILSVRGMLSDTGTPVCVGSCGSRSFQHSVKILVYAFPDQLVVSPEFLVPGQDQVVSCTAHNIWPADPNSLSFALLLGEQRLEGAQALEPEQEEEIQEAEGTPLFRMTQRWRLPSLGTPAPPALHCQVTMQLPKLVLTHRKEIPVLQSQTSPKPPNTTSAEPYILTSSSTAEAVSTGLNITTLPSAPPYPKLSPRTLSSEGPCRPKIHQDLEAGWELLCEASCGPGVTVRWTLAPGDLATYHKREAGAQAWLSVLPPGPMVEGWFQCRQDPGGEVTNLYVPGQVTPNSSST
# B1: PMAB53 (bispecific antibody, human IgG1, kappa)
# heavy: EVQLLESGGGLVQPGGSLRLSCAASGFTFSSYDMSWVRQAPGKGLEWVSGITISGGSTYYADSVKGRFTISRDNSKNTLYLQMNSLRAEDTAVYYCARGRGGSGWLDYWGQGTTVTVSSASTKGPSVFPLAPSSKSTSGGTAALGCLVKDYFPEPVTVSWNSGALTSGVHTFPAVLQSSGLYSLSSVVTVPSSSLGTQTYICNVNHKPSNTKVDKKVEPKSCDKTHTCPPCPAPEAAGAPSVFLFPPKPKDTLMISRTPEVTCVVVDVSHEDPEVKFNWYVDGVEVHNAKTKPREEQYNSTYRVVSVLTVLHQDWLNGKEYKCKVSNKALPAPIEKTISKAKGQPREPQVYTLPPSREEMTKNQVSLTCLVKGFYPSDIAVEWESNGQPENNYKTTPPVLDSDGSFFLYSKLTVDKSRWQQGNVFSCSVMHEALHNHYTQKSLSLSPGGGGGSGGGGSGGGGSEVQLLESGGGLVQPGGSLRLSCAASGFTFSSYWMHWVRQAPGKGLEWVSYISGSGGYTNYADSVKGRFTISRDNSKNTLYLQMNSLRAEDTAVYYCARDRPYYYDIDVWGKGTTVTVSSGGGGSGGGGSGGGGSGGGGSDIQMTQSPSSLSASVGDRVTITCRASQSISSSLAWYQQKPGKAPKLLIYAASSLQSGVPSRFSGSGSGTDFTLTISSLQPEDFATYYCQQYKSYPVTFGQGTKVEIK
# light: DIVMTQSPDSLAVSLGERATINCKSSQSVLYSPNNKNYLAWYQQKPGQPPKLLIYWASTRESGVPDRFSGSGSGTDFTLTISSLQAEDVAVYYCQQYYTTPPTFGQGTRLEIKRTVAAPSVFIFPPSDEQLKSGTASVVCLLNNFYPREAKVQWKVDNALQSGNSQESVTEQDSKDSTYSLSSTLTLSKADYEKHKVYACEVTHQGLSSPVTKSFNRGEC
# B2: PMAB15 (bispecific antibody, human IgG1, kappa)
# heavy: B1 heavy with T114L, Y513A, Y520S, N522Y, I569M
# light: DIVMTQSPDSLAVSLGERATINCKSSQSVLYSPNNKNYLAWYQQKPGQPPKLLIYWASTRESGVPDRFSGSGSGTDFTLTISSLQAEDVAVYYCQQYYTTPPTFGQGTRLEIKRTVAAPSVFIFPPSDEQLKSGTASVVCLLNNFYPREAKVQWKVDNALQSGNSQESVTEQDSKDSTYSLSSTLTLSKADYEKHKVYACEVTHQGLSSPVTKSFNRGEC
# B3: PMAB56 (bispecific antibody, human IgG1, kappa)
# heavy: B1 heavy with I569L
# light: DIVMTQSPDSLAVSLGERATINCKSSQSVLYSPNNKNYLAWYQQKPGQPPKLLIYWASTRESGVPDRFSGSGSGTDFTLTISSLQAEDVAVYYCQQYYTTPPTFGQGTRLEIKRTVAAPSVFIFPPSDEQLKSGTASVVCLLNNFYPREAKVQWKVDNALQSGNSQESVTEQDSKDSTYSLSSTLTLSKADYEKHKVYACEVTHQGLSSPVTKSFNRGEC
# B4: PMAB16 (bispecific antibody, human IgG1, kappa)
# heavy: B1 heavy with T114L, I569M
# light: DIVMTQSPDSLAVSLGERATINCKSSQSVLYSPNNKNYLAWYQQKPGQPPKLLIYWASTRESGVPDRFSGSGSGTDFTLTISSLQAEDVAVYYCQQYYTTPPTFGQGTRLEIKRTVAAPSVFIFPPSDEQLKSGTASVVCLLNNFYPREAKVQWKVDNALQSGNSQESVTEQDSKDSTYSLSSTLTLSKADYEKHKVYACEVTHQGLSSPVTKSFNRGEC
# B5: PMAB17 (bispecific antibody, human IgG1, kappa)
# heavy: B1 heavy with T114D, Y513A, Y520S, N522Y, Y566G, D568Y, I569M
# light: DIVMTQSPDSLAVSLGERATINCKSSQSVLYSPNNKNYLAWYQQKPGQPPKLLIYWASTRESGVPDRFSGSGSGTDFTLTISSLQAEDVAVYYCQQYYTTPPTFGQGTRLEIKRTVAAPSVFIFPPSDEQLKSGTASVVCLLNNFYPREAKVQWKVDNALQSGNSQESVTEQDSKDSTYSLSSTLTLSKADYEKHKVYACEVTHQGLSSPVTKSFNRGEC
# B6: PMAB19 (bispecific antibody, human IgG1, kappa)
# heavy: EVQLLESGGGLVQPGGSLRLSCAASGFTFSNSDMSWVRQAPGKGLEWVSGITISGGSTYYADSVKGRFTISRDNSKNTLYLQMNSLRAEDTAVYYCARGRGGSGWLDYWGQGTLVTVSSASTKGPSVFPLAPSSKSTSGGTAALGCLVKDYFPEPVTVSWNSGALTSGVHTFPAVLQSSGLYSLSSVVTVPSSSLGTQTYICNVNHKPSNTKVDKKVEPKSCDKTHTCPPCPAPEAAGAPSVFLFPPKPKDTLMISRTPEVTCVVVDVSHEDPEVKFNWYVDGVEVHNAKTKPREEQYNSTYRVVSVLTVLHQDWLNGKEYKCKVSNKALPAPIEKTISKAKGQPREPQVYTLPPSREEMTKNQVSLTCLVKGFYPSDIAVEWESNGQPENNYKTTPPVLDSDGSFFLYSKLTVDKSRWQQGNVFSCSVMHEALHNHYTQKSLSLSPGGGGGSGGGGSGGGGSEVQLLESGGGLVQPGGSLRLSCAASGFTFSSFWMHWVRQAPGKGLEWISYISGDSGYTNYADSVKGRFTISRDNSKNTLYLQMNSLRAEDTAVYYCARDRPYYYYMDVWGKGTTVTVSSGGGGSGGGGSGGGGSGGGGSDIQMTQSPSSLSASVGDRVTITCRASQSVSRSLAWYQQKPGKAPKLLIYAASSLQSGVPSRFSGSGSGTDFTLTISSLQPEDFATYYCQQYKSYPVTFGQGTKVEIK
# light: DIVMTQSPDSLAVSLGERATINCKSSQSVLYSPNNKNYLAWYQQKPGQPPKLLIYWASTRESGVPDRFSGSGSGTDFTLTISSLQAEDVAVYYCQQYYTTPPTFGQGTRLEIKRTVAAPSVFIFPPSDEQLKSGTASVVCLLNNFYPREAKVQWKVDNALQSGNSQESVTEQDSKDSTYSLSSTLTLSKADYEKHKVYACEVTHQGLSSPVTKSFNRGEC
# B7: PMAB24 (bispecific antibody, human IgG1, kappa)
# heavy: B6 heavy with S494D, Y513A
# light: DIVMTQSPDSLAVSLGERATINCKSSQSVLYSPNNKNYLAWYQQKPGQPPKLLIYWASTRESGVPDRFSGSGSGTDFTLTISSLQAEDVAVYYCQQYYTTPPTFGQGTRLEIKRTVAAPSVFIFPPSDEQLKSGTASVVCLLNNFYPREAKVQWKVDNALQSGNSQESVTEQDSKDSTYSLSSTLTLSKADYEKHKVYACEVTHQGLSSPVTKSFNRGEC
# B8: PMAB42 (bispecific antibody, human IgG1, kappa)
# heavy: B6 heavy with S494D, Y696T
# light: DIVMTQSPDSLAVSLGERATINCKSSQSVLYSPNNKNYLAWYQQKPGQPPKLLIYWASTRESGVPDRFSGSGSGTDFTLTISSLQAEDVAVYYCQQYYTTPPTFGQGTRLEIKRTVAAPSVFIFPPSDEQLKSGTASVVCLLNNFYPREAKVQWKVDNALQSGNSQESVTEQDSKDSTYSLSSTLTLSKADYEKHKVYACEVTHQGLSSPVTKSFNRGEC
# B9: PMAB23 (bispecific antibody, human IgG1, kappa)
# heavy: B6 heavy with S494D, I511V
# light: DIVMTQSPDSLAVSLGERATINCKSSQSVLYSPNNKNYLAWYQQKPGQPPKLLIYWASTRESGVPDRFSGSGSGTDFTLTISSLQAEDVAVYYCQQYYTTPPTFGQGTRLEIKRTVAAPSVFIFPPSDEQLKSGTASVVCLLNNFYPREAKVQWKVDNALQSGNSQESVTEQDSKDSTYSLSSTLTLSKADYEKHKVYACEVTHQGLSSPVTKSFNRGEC
# B10: PMAB20 (bispecific antibody, human IgG1, kappa)
# heavy: B6 heavy with S494D, F495Y
# light: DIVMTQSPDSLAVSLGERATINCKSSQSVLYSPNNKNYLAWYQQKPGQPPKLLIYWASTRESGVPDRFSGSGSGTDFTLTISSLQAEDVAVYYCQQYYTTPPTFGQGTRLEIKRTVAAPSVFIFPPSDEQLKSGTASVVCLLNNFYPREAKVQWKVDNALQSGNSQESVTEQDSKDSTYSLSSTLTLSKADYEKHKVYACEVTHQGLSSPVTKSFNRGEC
# B11: PMAB27 (bispecific antibody, human IgG1, kappa)
# heavy: B6 heavy with S494D, Y520S
# light: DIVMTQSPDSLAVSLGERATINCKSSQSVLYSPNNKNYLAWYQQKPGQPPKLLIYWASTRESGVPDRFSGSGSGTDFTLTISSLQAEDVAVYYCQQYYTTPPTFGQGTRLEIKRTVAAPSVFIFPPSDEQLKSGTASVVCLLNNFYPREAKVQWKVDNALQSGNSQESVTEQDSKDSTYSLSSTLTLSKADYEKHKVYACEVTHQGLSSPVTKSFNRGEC
# B12: PMAB25 (bispecific antibody, human IgG1, kappa)
# heavy: B6 heavy with S494D, D517S
# light: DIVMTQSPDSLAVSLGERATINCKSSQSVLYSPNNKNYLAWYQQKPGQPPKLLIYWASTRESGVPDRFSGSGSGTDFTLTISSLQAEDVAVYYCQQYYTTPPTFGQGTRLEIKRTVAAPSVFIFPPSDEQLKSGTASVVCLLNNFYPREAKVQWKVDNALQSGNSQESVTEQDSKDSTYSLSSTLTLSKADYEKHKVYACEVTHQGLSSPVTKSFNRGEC
# B13: PMAB28 (bispecific antibody, human IgG1, kappa)
# heavy: B6 heavy with S494D, N522Y
# light: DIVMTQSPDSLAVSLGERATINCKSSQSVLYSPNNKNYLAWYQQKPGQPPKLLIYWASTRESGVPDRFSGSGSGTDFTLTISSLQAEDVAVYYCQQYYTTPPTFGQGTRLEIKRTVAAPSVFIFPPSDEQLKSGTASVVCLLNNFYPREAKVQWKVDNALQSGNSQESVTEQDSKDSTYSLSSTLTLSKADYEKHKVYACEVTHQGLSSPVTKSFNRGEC
# B14: PMAB37 (bispecific antibody, human IgG1, kappa)
# heavy: B6 heavy with S494D, R633S
# light: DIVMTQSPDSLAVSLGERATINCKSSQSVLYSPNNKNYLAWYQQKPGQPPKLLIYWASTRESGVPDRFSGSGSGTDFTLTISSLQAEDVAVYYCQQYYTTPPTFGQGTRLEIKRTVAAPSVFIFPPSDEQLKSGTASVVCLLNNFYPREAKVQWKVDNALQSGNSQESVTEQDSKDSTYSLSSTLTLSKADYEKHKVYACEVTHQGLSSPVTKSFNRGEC
# B15: PMAB36 (bispecific antibody, human IgG1, kappa)
# heavy: B6 heavy with S494D, V631I
# light: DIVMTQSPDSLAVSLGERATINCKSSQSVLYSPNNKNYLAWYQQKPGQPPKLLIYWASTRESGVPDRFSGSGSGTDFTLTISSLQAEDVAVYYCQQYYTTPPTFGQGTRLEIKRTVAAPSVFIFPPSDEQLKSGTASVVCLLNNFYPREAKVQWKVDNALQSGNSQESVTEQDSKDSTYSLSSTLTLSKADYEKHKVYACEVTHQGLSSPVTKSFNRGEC
# B16: PMAB26 (bispecific antibody, human IgG1, kappa)
# heavy: B6 heavy with S494D, S518G
# light: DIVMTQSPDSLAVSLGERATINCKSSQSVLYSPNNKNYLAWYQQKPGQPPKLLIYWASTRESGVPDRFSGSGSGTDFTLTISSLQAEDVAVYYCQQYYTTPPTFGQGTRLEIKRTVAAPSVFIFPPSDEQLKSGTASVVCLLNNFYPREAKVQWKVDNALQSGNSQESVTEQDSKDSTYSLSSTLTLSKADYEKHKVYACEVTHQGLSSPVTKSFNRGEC
# B17: PMAB41 (bispecific antibody, human IgG1, kappa)
# heavy: B6 heavy with S494D, K694Y
# light: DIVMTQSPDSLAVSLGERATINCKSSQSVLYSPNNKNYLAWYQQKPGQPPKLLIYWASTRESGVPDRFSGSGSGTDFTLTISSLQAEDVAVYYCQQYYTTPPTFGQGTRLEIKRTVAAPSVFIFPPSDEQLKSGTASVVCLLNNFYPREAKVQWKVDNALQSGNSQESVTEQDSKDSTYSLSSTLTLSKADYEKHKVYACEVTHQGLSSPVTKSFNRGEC
# B18: MIAB178 (antibody, V domains shown)
# VH: EVQLLESGGGLVQPGGSLRLSCAASGFTFSSYWMHWVRQAPGKGLEWISAISGSSGSTYYADSVKGRFTISRDNSKNTLYLQMNSLRAEDTAVYYCARDRPYYYYMDVWGKGTTVTVSS
# VL: DIQMTQSPSSLSASVGDRVTITCRASQSVSRSLAWYQQKPGKAPKLLIYAASSLQSGVPSRFSGSGSGTDFTLTISSLQPEDFATYYCQQYKSYPVTFGQGTKVEIK
# notes: tested with human Fc; also called MIAB178-001
# B19: MIAB183 (antibody, V domains shown)
# VH: B18 VH with I48V, S55G
# VL: B18 VL with R31S
# notes: tested with human Fc; also called MIAB183-001
# B20: MIAB184 (antibody, V domains shown)
# VH: B18 VH with I48V, S55G
# VL: B18 VL with V29I, R31S
# notes: tested with human Fc; also called MIAB184-001
# B21: MIAB182 (antibody, V domains shown)
# VH: B18 VH with I48V, S55G
# VL: B18 VL with V29I
# notes: tested with human Fc; also called MIAB182-001
# Molecular target: T1, human MAdCAM
# Assay: BLI (Octet)
Kd,koff,kon,response,Binder
49.7 nM,0.000716 s⁻¹,14400 M⁻¹ s⁻¹,,B1
73.1 nM,0.0839 s⁻¹,1.15e+06 M⁻¹ s⁻¹,0.0655,B2
208 nM,0.00491 s⁻¹,23600 M⁻¹ s⁻¹,,B3
134 nM,0.0631 s⁻¹,472000 M⁻¹ s⁻¹,0.186,B4
17.1 nM,0.0636 s⁻¹,3.73e+06 M⁻¹ s⁻¹,0.0416,B5

# Molecular target: T3, cyno MAdCAM (cynomolgus)
# T3 construct: also called cynomolgus MAdCAM
# Assay: BLI (Octet)
Kd,koff,kon,Binder
379 nM,0.0217 s⁻¹,57100 M⁻¹ s⁻¹,B1
96.5 nM,0.0591 s⁻¹,612000 M⁻¹ s⁻¹,B3

# Molecular target: T2, mouse MAdCAM
# Assay: BLI (Octet)
Kd,koff,kon,response,Binder
1740 nM,0.217 s⁻¹,125000 M⁻¹ s⁻¹,,B1
161 nM,0.00147 s⁻¹,9120 M⁻¹ s⁻¹,,B3
334 nM,0.0828 s⁻¹,248000 M⁻¹ s⁻¹,0.0407,B4

# Molecular target: T1, human MAdCAM
# Assay: BLI (Octet), binder on AHC tips
# In short: (§1)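 After 20 minutes of equilibration in assay buffer, anti-human IgG Fc biosensors on an Octet96 RED were loaded for 240 s with test article at 10 μg/mL in assay buffer. Association with MAdCAM-1, a seven-point serial dilution from 200 nM to 3.13 nM, ran for 120 s, and dissociation in assay buffer ran for another 120 s. A global one-to-one fit in the Octet data analysis software gave the kinetic rates and dissociation constant.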
Kd,koff,kon,Binder
31.2 nM,0.0168 s⁻¹,540000 M⁻¹ s⁻¹,B6
33.2 nM,0.0134 s⁻¹,404000 M⁻¹ s⁻¹,B7
395 nM,0.114 s⁻¹,288000 M⁻¹ s⁻¹,B8
110 nM,0.0389 s⁻¹,355000 M⁻¹ s⁻¹,B9
90.5 nM,0.0372 s⁻¹,411000 M⁻¹ s⁻¹,B10
92.2 nM,0.128 s⁻¹,,B11
43.6 nM,0.0212 s⁻¹,486000 M⁻¹ s⁻¹,B12
86.2 nM,0.0902 s⁻¹,1.05e+06 M⁻¹ s⁻¹,B13
285 nM,0.0838 s⁻¹,294000 M⁻¹ s⁻¹,B14
109 nM,0.0325 s⁻¹,298000 M⁻¹ s⁻¹,B15
138 nM,0.0658 s⁻¹,476000 M⁻¹ s⁻¹,B16

# Molecular target: T2, mouse MAdCAM
# Assay: BLI (Octet), binder on AHC tips
# In short: as §1
Kd,koff,kon,response,Binder
112 nM,0.0177 s⁻¹,158000 M⁻¹ s⁻¹,0.149,B6
52.4 nM,0.00596 s⁻¹,114000 M⁻¹ s⁻¹,0.0549,B7
105 nM,0.017 s⁻¹,162000 M⁻¹ s⁻¹,0.129,B8
141 nM,0.0178 s⁻¹,126000 M⁻¹ s⁻¹,0.141,B9
118 nM,0.0193 s⁻¹,163000 M⁻¹ s⁻¹,0.153,B10
1020 nM,0.00469 s⁻¹,4580 M⁻¹ s⁻¹,0.0278,B11
115 nM,0.012 s⁻¹,105000 M⁻¹ s⁻¹,0.133,B12
103 nM,0.00886 s⁻¹,85900 M⁻¹ s⁻¹,0.083,B13
176 nM,0.0178 s⁻¹,101000 M⁻¹ s⁻¹,0.152,B14
206 nM,0.0251 s⁻¹,122000 M⁻¹ s⁻¹,0.169,B15
134 nM,0.0118 s⁻¹,87900 M⁻¹ s⁻¹,0.132,B16
119 nM,0.0246 s⁻¹,208000 M⁻¹ s⁻¹,0.189,B17

# Molecular target: T1, human MAdCAM
# Assay: BLI (Octet), binder on anti-human Fc tips
Kd,koff,kon,fold reduction of affinity against PRNT1,Binder
519 nM,0.22 s⁻¹,372000 M⁻¹ s⁻¹,,B18
362 nM,,,20 fold,B19
563 nM,0.0818 s⁻¹,145000 M⁻¹ s⁻¹,40 fold,B20
119 nM,0.0267 s⁻¹,226000 M⁻¹ s⁻¹,10 fold,B21
